Assay results taken from patent US20200087373A1 (UNIVERSITY OF COPENHAGEN, published 2020).
Numbered stars: 1 amine (or outer) side, 2 acyl side, 3 side chain; on linkers, the order of the positions; unused ones are H or OH. Side chains are listed from the residue outwards. Ends that are not written are not given here. * marks the point of attachment. γGlu = O=C(O)[C@H](CCC(=O)[*:2])N[*:1]; Palmitoyl = CCCCCCCCCCCCCCCC(=O)*; AEEA = NCCOCCOCC(=O)O; GABA = NCCCC(=O)O; βAla = NCCC(=O)O

Tests used:
[1] = biological target: T1, human GIP receptor (human, UniProt P48546 22-466); assay: cell-based or functional assay
T1 sequence (looked up): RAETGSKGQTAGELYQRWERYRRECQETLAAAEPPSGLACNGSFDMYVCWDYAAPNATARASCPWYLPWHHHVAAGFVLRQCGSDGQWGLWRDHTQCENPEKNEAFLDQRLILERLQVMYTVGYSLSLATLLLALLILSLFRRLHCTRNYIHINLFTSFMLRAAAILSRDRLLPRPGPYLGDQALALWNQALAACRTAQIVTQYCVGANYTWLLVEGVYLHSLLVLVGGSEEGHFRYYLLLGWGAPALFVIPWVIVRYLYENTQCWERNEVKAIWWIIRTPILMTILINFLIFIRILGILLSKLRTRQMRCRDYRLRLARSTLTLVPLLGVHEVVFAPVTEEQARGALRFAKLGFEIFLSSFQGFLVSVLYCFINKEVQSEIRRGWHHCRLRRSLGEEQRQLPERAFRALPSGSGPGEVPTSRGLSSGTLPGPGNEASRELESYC

[2] = biological target: T1, human GIP receptor; assay: cell-based or functional assay; remark: listed apart in the source
[3] = biological target: T1, human GIP receptor; assay: 125I-hGIP(1-42) competition binding, COS-7 cells expressing human GIPR
Method: (§1) After incubation, the cells were washed twice in ice-cold binding buffer (+/−2% HSA) and lysed using 200 mM NaOH with 1% SDS for 30 min. Nonspecific binding was determined as the binding of radioactive ligand to untransfected cells.

[4] = biological target: T1, human GIP receptor; assay: 125I-hGIP competition binding on hGIPR COS-7 cells; fold in affinity, paired, reference taken as GIP(3-30)NH2
Method: as §1

[5] = biological target: T1, human GIP receptor; assay: 125I-hGIP(1-42) competition binding, COS-7 cells expressing human GIPR, 2% HSA
Method: as §1

[6] = biological target: T1, human GIP receptor; assay: 125I-hGIP(1-42) competition binding, COS-7 cells expressing human GIPR, 0.1% casein (no HSA)
Method: as §1

B1: AT166 [hGIP(3-30)NH2[H18K]-C16/18+β-alanine] (peptide)
peptide: EGTFISDYSIAMDKIK([βAla-Palmitoyl])QQDFVNWLLAQK-NH2
modifications: N-terminus assumed
SMILES: CCCCCCCCCCCCCCCC(=O)NCCC(=O)NCCCC[C@H](NC(=O)[C@@H](NC(=O)[C@H](CCCCN)NC(=O)[C@H](CC(=O)O)NC(=O)[C@H](CCSC)NC(=O)[C@H](C)NC(=O)[C@@H](NC(=O)[C@H](CO)NC(=O)[C@H](Cc1ccc(O)cc1)NC(=O)[C@H](CC(=O)O)NC(=O)[C@H](CO)NC(=O)[C@@H](NC(=O)[C@H](Cc1ccccc1)NC(=O)[C@@H](NC(=O)CNC(=O)[C@@H](N)CCC(=O)O)[C@@H](C)O)[C@@H](C)CC)[C@@H](C)CC)[C@@H](C)CC)C(=O)N[C@@H](CCC(N)=O)C(=O)N[C@@H](CCC(N)=O)C(=O)N[C@@H](CC(=O)O)C(=O)N[C@@H](Cc1ccccc1)C(=O)N[C@H](C(=O)N[C@@H](CC(N)=O)C(=O)N[C@@H](Cc1c[nH]c2ccccc12)C(=O)N[C@@H](CC(C)C)C(=O)N[C@@H](CC(C)C)C(=O)N[C@@H](C)C(=O)N[C@@H](CCC(N)=O)C(=O)N[C@@H](CCCCN)C(N)=O)C(C)C
[1]
  cAMP accumulation Fold change (from GIP(3-30)NH2): 2.9 fold
  cAMP accumulation IC50: 22.9 nM
  cAMP accumulation logIC50: -7.64 log(M)

B2: AT109 (E3pGlu, C16 at position 16) (peptide)
peptide: EGTFISDYSIAMDKIHQQDFVNWLLAQK
modifications: pyroglutamic acid (pGlu) in place of Glu at position 3 in GIP numbering (residue 1 of the entry); C16 (palmitoyl) fatty acid on Lys at position 16 (residue 14 of the entry); C-terminal amide taken from the series hGIP(3-30)NH2
[2]
  cAMP - antagonisme fold (paired): 8 fold
[3]
  IC50: 1580 nM
[4]
  fold (paired): 74 fold

B3: AT167 [hGIP(3-30)NH2[H18K]-C16/18+y-glutamic acid+8-amino-3,6-dioxaoctanoic acid] (peptide)
peptide: EGTFISDYSIAMDKIK([γGlu-AEEA-Palmitoyl])QQDFVNWLLAQK-NH2
modifications: also: order of γGlu and AEEAc linker pieces on Lys not given here
[1]
  cAMP accumulation Fold change (from GIP(3-30)NH2): 14.8 fold
  cAMP accumulation IC50: 4.4 nM
  cAMP accumulation logIC50: -8.36 log(M)

B4: hGIP(3-30)NH2 (peptide)
peptide: EGTFISDYSIAMDKIHQQDFVNWLLAQK-NH2
[1]
  cAMP accumulation IC50: 64.6 nM
  cAMP accumulation logIC50: -7.19 log(M)

B5: AT165 [hGIP(3-30)NH2[H18K]-C16/18+y-aminobuturic acid] (peptide)
peptide: EGTFISDYSIAMDKIK([GABA-Palmitoyl])QQDFVNWLLAQK-NH2
modifications: N-terminus assumed
SMILES: CCCCCCCCCCCCCCCC(=O)NCCCC(=O)NCCCC[C@H](NC(=O)[C@@H](NC(=O)[C@H](CCCCN)NC(=O)[C@H](CC(=O)O)NC(=O)[C@H](CCSC)NC(=O)[C@H](C)NC(=O)[C@@H](NC(=O)[C@H](CO)NC(=O)[C@H](Cc1ccc(O)cc1)NC(=O)[C@H](CC(=O)O)NC(=O)[C@H](CO)NC(=O)[C@@H](NC(=O)[C@H](Cc1ccccc1)NC(=O)[C@@H](NC(=O)CNC(=O)[C@@H](N)CCC(=O)O)[C@@H](C)O)[C@@H](C)CC)[C@@H](C)CC)[C@@H](C)CC)C(=O)N[C@@H](CCC(N)=O)C(=O)N[C@@H](CCC(N)=O)C(=O)N[C@@H](CC(=O)O)C(=O)N[C@@H](Cc1ccccc1)C(=O)N[C@H](C(=O)N[C@@H](CC(N)=O)C(=O)N[C@@H](Cc1c[nH]c2ccccc12)C(=O)N[C@@H](CC(C)C)C(=O)N[C@@H](CC(C)C)C(=O)N[C@@H](C)C(=O)N[C@@H](CCC(N)=O)C(=O)N[C@@H](CCCCN)C(N)=O)C(C)C
[1]
  cAMP accumulation Fold change (from GIP(3-30)NH2): 2.9 fold
  cAMP accumulation IC50: 22.4 nM
  cAMP accumulation logIC50: -7.65 log(M)

B6: AT117 [hGIP(3-30)NH2[H18K]-C16/18] (peptide)
peptide: EGTFISDYSIAMDKIK(Palmitoyl)QQDFVNWLLAQK-NH2
modifications: N-terminus assumed
SMILES: CCCCCCCCCCCCCCCC(=O)NCCCC[C@H](NC(=O)[C@@H](NC(=O)[C@H](CCCCN)NC(=O)[C@H](CC(=O)O)NC(=O)[C@H](CCSC)NC(=O)[C@H](C)NC(=O)[C@@H](NC(=O)[C@H](CO)NC(=O)[C@H](Cc1ccc(O)cc1)NC(=O)[C@H](CC(=O)O)NC(=O)[C@H](CO)NC(=O)[C@@H](NC(=O)[C@H](Cc1ccccc1)NC(=O)[C@@H](NC(=O)CNC(=O)[C@@H](N)CCC(=O)O)[C@@H](C)O)[C@@H](C)CC)[C@@H](C)CC)[C@@H](C)CC)C(=O)N[C@@H](CCC(N)=O)C(=O)N[C@@H](CCC(N)=O)C(=O)N[C@@H](CC(=O)O)C(=O)N[C@@H](Cc1ccccc1)C(=O)N[C@H](C(=O)N[C@@H](CC(N)=O)C(=O)N[C@@H](Cc1c[nH]c2ccccc12)C(=O)N[C@@H](CC(C)C)C(=O)N[C@@H](CC(C)C)C(=O)N[C@@H](C)C(=O)N[C@@H](CCC(N)=O)C(=O)N[C@@H](CCCCN)C(N)=O)C(C)C
[2]
  cAMP - antagonisme IC50: 19.4 nM
[3]
  IC50: 292 nM
[5]
  IC50: 1730 nM
[6]
  IC50: 110 nM

B7: AT131 [hGIP(3-30)NH2[D15E; H18A]-C16/16] (peptide)
peptide: EGTFISDYSIAMEK(Palmitoyl)IAQQDFVNWLLAQK-NH2
modifications: N-terminus assumed
SMILES: CCCCCCCCCCCCCCCC(=O)NCCCC[C@H](NC(=O)[C@H](CCC(=O)O)NC(=O)[C@H](CCSC)NC(=O)[C@H](C)NC(=O)[C@@H](NC(=O)[C@H](CO)NC(=O)[C@H](Cc1ccc(O)cc1)NC(=O)[C@H](CC(=O)O)NC(=O)[C@H](CO)NC(=O)[C@@H](NC(=O)[C@H](Cc1ccccc1)NC(=O)[C@@H](NC(=O)CNC(=O)[C@@H](N)CCC(=O)O)[C@@H](C)O)[C@@H](C)CC)[C@@H](C)CC)C(=O)N[C@H](C(=O)N[C@@H](C)C(=O)N[C@@H](CCC(N)=O)C(=O)N[C@@H](CCC(N)=O)C(=O)N[C@@H](CC(=O)O)C(=O)N[C@@H](Cc1ccccc1)C(=O)N[C@H](C(=O)N[C@@H](CC(N)=O)C(=O)N[C@@H](Cc1c[nH]c2ccccc12)C(=O)N[C@@H](CC(C)C)C(=O)N[C@@H](CC(C)C)C(=O)N[C@@H](C)C(=O)N[C@@H](CCC(N)=O)C(=O)N[C@@H](CCCCN)C(N)=O)C(C)C)[C@@H](C)CC
[2]
  cAMP - antagonisme IC50: 65 nM
  cAMP - antagonisme fold (paired): 1.1 fold
[3]
  IC50: 6510 nM
[4]
  fold (paired): 49 fold

B8: AT164 [hGIP(3-30)NH2[H18K]-C16/18+y-glutamic acid] (peptide)
peptide: EGTFISDYSIAMDKIK([γGlu-Palmitoyl])QQDFVNWLLAQK-NH2
modifications: N-terminus assumed
SMILES: CCCCCCCCCCCCCCCC(=O)N[C@@H](CCC(=O)NCCCC[C@H](NC(=O)[C@@H](NC(=O)[C@H](CCCCN)NC(=O)[C@H](CC(=O)O)NC(=O)[C@H](CCSC)NC(=O)[C@H](C)NC(=O)[C@@H](NC(=O)[C@H](CO)NC(=O)[C@H](Cc1ccc(O)cc1)NC(=O)[C@H](CC(=O)O)NC(=O)[C@H](CO)NC(=O)[C@@H](NC(=O)[C@H](Cc1ccccc1)NC(=O)[C@@H](NC(=O)CNC(=O)[C@@H](N)CCC(=O)O)[C@@H](C)O)[C@@H](C)CC)[C@@H](C)CC)[C@@H](C)CC)C(=O)N[C@@H](CCC(N)=O)C(=O)N[C@@H](CCC(N)=O)C(=O)N[C@@H](CC(=O)O)C(=O)N[C@@H](Cc1ccccc1)C(=O)N[C@H](C(=O)N[C@@H](CC(N)=O)C(=O)N[C@@H](Cc1c[nH]c2ccccc12)C(=O)N[C@@H](CC(C)C)C(=O)N[C@@H](CC(C)C)C(=O)N[C@@H](C)C(=O)N[C@@H](CCC(N)=O)C(=O)N[C@@H](CCCCN)C(N)=O)C(C)C)C(=O)O
[1]
  cAMP accumulation Fold change (from GIP(3-30)NH2): 6.3 fold
  cAMP accumulation IC50: 10.2 nM
  cAMP accumulation logIC50: -7.99 log(M)
